Assay results published in patent US20180280504A1, “GLYCAN-INTERACTING COMPOUNDS AND METHODS OF USE” (SIAMAB THERAPEUTICS, INC., priority 2014, published 2018).

How the values were obtained:
[1] = PAA-glycan ELISA, AcSTn-PAA; format: binding; conditions: 200 ng/well PAA antigen; 1:5 dilutions from 1 μM
Protocol: 18D2 and 18C7 antibodies were further characterized by ELISA comprising antigens other than BSM. ELISAs were carried out according to Example 2, with the exception that ELISA plates were coated with biotinylated polyacrylamide (PAA) particles comprising either AcSTn (AcSTn-PAA), GcSTn (GcSTn-PAA) or Tn (Tn-PAA) as antigens. These particles present the antigens in a multivalent format. Briefly, 96-well ELISA plates were coated with 200 ng/well of each PAA antigen and blocked with PBS with 1% OVA. Antibodies were serially diluted at 1:5 in PBS with 1% OVA using an initial concentration of 1 μM. After blocking, antibodies were added to the plates and plates were incubated for 1.5 hours at room temperature. Binding of anti-STn antibodies was detected using a goat anti-mouse IgG-HRP conjugated antibody (Jackson Immunoresearch Laboratories, West Grove, Pa.). The reaction was developed by addition of HRP substrate and hydrogen peroxide. The reaction was then stopped by the addition of sulfuric acid (1.6 M). Optical densities were measured at 490 nm. A dose-response curve was generated using readings at each concentration tested and a non-linear regression curve was generated with four-parameter modeling to determine EC50 values for each antibody.

[2] = tested on: COLO-205 Human Colon Adenocarcinoma Tumor Xenograft; experiment: COLO-205 xenograft model, clinical observations; format: in vivo, mouse; conditions: 5 mg/kg i.p. once weekly
Protocol: Animals were inoculated in the subcutaneous right flank with 5×10^6 colon adenocarcinoma tumor cells (COLO-205) in matrigel, mean tumor size was 175-225 mm^3 at study initiation. Animals were given either vehicle or one of the antibody drug conjugates (5 mg/kg) by intraperitoneal injection once weekly. Tumor volume and percent body weight change were determined once weekly until study termination. The study was terminated when the tumor in the vehicle control animal reached a mean tumor weight >1500 mm^3. SE refers to “standard error.”
Clinical observations of tumor shape, size and disposition were noted throughout the study.

[3] = MDA-MB-231-STn xenograft model, percent body weight change; format: in vivo, mouse; conditions: 5 mg/kg i.p. once weekly
Source text: To evaluate antibody drug conjugates (ADCs) as single agents in an MDA-MB-231-STn Human Breast Tumor Xenograft model, 40 ICR SCID female mice age range 6-8 weeks were randomly separated into four separate groups, one vehicle control and three ADC treatments, then maintained individually with food/water ad libitum (see the following Table).
Animals were inoculated in the subcutaneous right flank with 5×10^6 breast tumor cells (MDA-MB-231-STn) in matrigel, mean tumor size was 175-225 mm^3 at study initiation. Animals were given either vehicle or antibody drug conjugates (5 mg/kg) by intraperitoneal injection once weekly. Tumor volume and percent body weight change were determined once weekly until study termination. The study was terminated when the tumor in the vehicle control animal reached a mean tumor weight ≥1500 mm^3. SE refers to “standard error.”

[4] = tested on: MDA-MB-231 cells expressing cell-surface Neu5Ac-STn; experiment: Flow cytometry assay to quantify antibody internalization; format: cell-based, human; conditions: for % cells exhibiting 488 fluorescence: 4° C.; for internalization (conclusion): Neu5Ac-STn-overexpressing MDA-MB-231 cells
Protocol: For analysis, stably transfected variants of MDA-MB-231 cells (clone TAH3.P10) that express high levels of cell surface-bound Neu5Ac-STn are harvested using 10 mM EDTA and washed with PBS comprising 1% BSA before pelleting by light centrifugation. Cell numbers and viability are determined by trypan blue dye exclusion analysis and cell concentrations are adjusted to 5×10^6 cells/ml in PBS with 1% BSA. 50 μl of cells are added to each well of an assay plate. Cells are combined with 50 μl solutions of antibody or fluorescently-labeled antibody and incubated for 1 hour at 4° C. Following this incubation period, cells are washed with PBS to remove unbound antibody and aliquots are removed for incubation for various times (15, 30, 60 minutes) at 37° C. to allow bound antibody to internalize at a physiologically relevant temperature. After each incubation, cell surface-bound antibody is removed by treating cells with acidic medium (150 mM NaCl, pH=2.5) Cells treated with unlabeled antibody are washed with PBS and fixed with paraformaldehyde fixation buffer (PFA) containing 3% paraformaldehyde and 2% sucrose in PBS for 15 minutes at room temperature. These cells are rinsed again in PBS and treated with blocking buffer made up of PBS with 1% bovine serum albumin (BSA). Cells are incubated for 30 min at room temperature, rinsed in PBS and treated with secondary antibody (allophycocyanin-labeled goat-anti-mouse IgG) for 2 hours at room temperature. All cells are then washed with PBS and subjected to flow cytometry analysis wherein 10,000 events are recorded for each sample. Residual fluorescent signal in acid-treated samples is further quenched via treatment with trypan blue dye.
Flow cytometry analysis was carried out in order to quantify the extent of antibody internalization according to the procedure of Example 15. MDA-MB-231 cells expressing high levels of cell-surface bound Neu5Ac-STn were harvested using StemPro Accutase buffer and washed with PBS comprising 5% FBS before pelleting by light centrifugation. Cell numbers and viability were determined by trypan blue dye exclusion analysis and cell concentrations were adjusted to 5×10^6 cells/ml in PBS with 5% FBS. 50 μl of cells were added to each well of an assay plate. Cells were then combined with 50 μl solutions of antibody S3F or ALEXA FLUOR® 488-conjugated antibodies S3F, 7G9 or GB26.6 and incubated for 1 hour at 4° C. Following this incubation period, cells were washed with PBS to remove unbound antibody and aliquots were removed for incubation for various times (15, 30, 60 minutes) at 37° C. After each incubation, cells were treated with acidic medium (150 mM NaCl, pH=2.5) to remove surface-bound antibody. Cells treated with unlabeled S3F were washed with PBS 5% FCS. Secondary antibody (allophycocyanin-labeled goat-anti-mouse IgG) was added to the cells and incubated for 30 min at 4° C., rinsed in PBS 5% FBS and kept on ice until flow cytometry analysis. All cells were then washed with PBS and subjected to flow cytometry analysis wherein 10,000 events were recorded for each sample.
Culturing and harvesting of MDA-STn+ cells was performed according to Example 14. Staining of MDA-STn+ cells with S3F antibody included either unlabeled S3F or S3F directly labeled with ALEXA FLUOR® 488 (Thermo Fisher Scientific, Pittsburgh, Pa.). Stained control vials were kept at 4° C. until analysis was performed. Controls included a GB26.6 antibody negative control for STn binding, unstained control, and unlabeled S3F antibody followed by an APC secondary antibody. Vials for each experimental time point (15, 30 and 60 min) were incubated in complete media at 37° C. 5% CO2 to allow for antibody internalization. Immediately prior to analysis by flow cytometry, non-internalized antibody was stripped from the cell surface of experimental samples using 150 mM NaCl pH 2.5 (acidic buffer).

[5] = ALEXA FLUOR 488-conjugated antibody, acid
[6] = ALEXA FLUOR 488-conjugated antibody, no acid

B1: 18C7: anti-STn mouse monoclonal, IgG2c κ, from mouse #4436; VH SEQ ID NO: 4, VL SEQ ID NO: 5 (antibody, V domains shown)
VH: QVTLKESGPGILQPSQTLSLTCSFSGFSLSTFGMGVGWIRQPSGKGLEWLAHIWWDDDKYYNPALKSRLTISKDTSKNQVFLKIANVDTADTATYYCARIAYYYGSERDYWGQGTTLTVSS
VL: QIVLTQSPAIMSASPGEKVTMTCSASSSISYMHWYHQKPGTSPKRWIYDTSKLASGVPARFSGSGSGTSYSLTISSMEAEDAATYYCHQRSSYTFGGGTKLEIKR
Q: For B1, which EC50 [1] is on record?
A: Its EC50 is 4.1 nM.

B2: S3F: 3F1 variable domains combined with IgG2a constant domains; heavy chain SEQ ID NO: 63, light chain SEQ ID NO: 64 (antibody)
heavy: QVQLQQSDAELVKPGASVKISCKASGYTFTDHAIHWVKQKPEQGLDWIGYISPGNGDIKYNEKFKDKVTLTADKSSSTACMHLNSLTSEDSAVYFCKRSLLALDYWGQGTTLTVSSAKTTAPSVYPLAPVCGDTTGSSVTLGCLVKGYFPEPVTLTWNSGSLSSGVHTFPAVLQSDLYTLSSSVTVTSSTWPSQSITCNVAHPASSTKVDKKIEPRGPTIKPCPPCKCPAPNLLGGPSVFIFPPKIKDVLMISLSPIVTCVVVDVSEDDPDVQISWFVNNVEVHTAQTQTHREDYNSTLRVVSALPIQHQDWMSGKEFKCKVNNKDLPAPIERTISKPKGSVRAPQVYVLPPPEEEMTKKQVTLTCMVTDFMPEDIYVEWTNNGKTELNYKNTEPVLDSDGSYFMYSKLRVEKKNWVERNSYSCSVVHEGLHNHHTTKSFSRTPGK
light: DIVMTQSHKFMSTSVGDRVSITCKASQDVGTNIAWYQQKPGRSPKVLIYSASTRHTGVPDRFTGSGSGTDFTLTISNVQSEDLTDYFCQQYSSFPLTFGVGTKLELKRADAAPTVSIFPPSSEQLTSGGASVVCFLNNFYPKDINVKWKIDGSERQNGVLNSWTDQDSKDSTYSMSSTLTLTKDEYERHNSYTCEATHKTSTSPIVKSFNRNEC
Q: Which “clinical observations of tumors and signs of illness” value [2] does the source give for B2 here?
A: Its value is “necrosing tumors ranging in severity from slight to severe”.

Q: What about the “body weight at study termination” value [3] of the same molecule?
A: Its value is “overall increase in body weight”.

Q: And the “Percent Body Weight Change” value ([3]; study day 1)?
A: Its value is 0%.

Q: What about the “Percent Body Weight Change” value ([3]; study day 4) of the same molecule?
A: Its value is −0.01%.

Q: And the “Percent Body Weight Change” value ([3]; study day 8)?
A: The value was −1.29%.

Q: What about the “Percent Body Weight Change” value ([3]; study day 10) of the same molecule?
A: The value was −1.36%.

Q: What about the “Percent Body Weight Change” value ([3]; study day 15) of the same molecule?
A: Its value is −1.09%.

Q: What about the “Percent Body Weight Change” value ([3]; study day 18) of the same molecule?
A: Its value is −0.51%.

Q: What about the “Percent Body Weight Change” value ([3]; study day 23) of the same molecule?
A: Its value is 1.49%.

Q: What about the “Percent Body Weight Change” value ([3]; study day 25) of the same molecule?
A: Its value is 2.17%.

Q: What about the “% cells exhibiting 488 fluorescence” value ([4]; ALEXA FLUOR 488-conjugated antibody, then 37° C. 15 min, acid) of the same molecule?
A: Its value is 22.5%.

Q: What about the “% cells exhibiting 488 fluorescence” value ([4]; ALEXA FLUOR 488-conjugated antibody, then 37° C. 15 min, no acid) of the same molecule?
A: The value was 56.6%.

Q: And the “% cells exhibiting 488 fluorescence” value ([4]; ALEXA FLUOR 488-conjugated antibody, then 37° C. 30 min, acid)?
A: Its value is 25.9%.

Q: What about the “% cells exhibiting 488 fluorescence” value ([4]; ALEXA FLUOR 488-conjugated antibody, then 37° C. 30 min, no acid) of the same molecule?
A: Its value is 53.1%.

Q: What about the “% cells exhibiting 488 fluorescence” value ([4]; ALEXA FLUOR 488-conjugated antibody, then 37° C. 60 min, acid) of the same molecule?
A: The value was 31.5%.

Q: And the “% cells exhibiting 488 fluorescence” value ([4]; ALEXA FLUOR 488-conjugated antibody, then 37° C. 60 min, no acid)?
A: The value was 50.9%.

Q: And the “% cells exhibiting 488 fluorescence” value [4, 5]?
A: The value was 9.29%.

Q: What about the “% cells exhibiting 488 fluorescence” value [4, 6] of the same molecule?
A: Its value is 57.9%.

Q: What about the “% of cells exhibiting fluorescence after the staining period” value ([4]; ALEXA FLUOR 488-conjugated antibody, no acid, range over samples) of the same molecule?
A: The value was 50-57%.

Q: And the “internalization (conclusion)” value [4]?
A: Its value is “can be internalized”.

B3: 7G9: anti-STn mouse monoclonal, IgG2b κ, from mouse #4407; VH SEQ ID NO: 12, VL SEQ ID NO: 9 (antibody, V domains shown)
VH: QVQLKESGPGLVAPSQNLSITCTVSGFSLTSYGVNWVRQPPGKGLEWLGVIWGDGSTNYHSALISRLIISKENSKSQVFLKLNSLQTNDTATYYCTKGFVYWGQGTLVTVSA
VL: QIVLTQSPAIMSASPGEKVTMTCSASSSVSYMHWYQQKSGTSPKRWIFDTSKLASGVPARFSGSGSGTSYSLTISSMEAEDAATYYCQQWSSNLLTFGAGTKLELK
Q: With B3 as the molecule, how does the “% cells exhibiting 488 fluorescence” value [4, 5] read?
A: Its value is “approximately 70%”.

Q: What about the “% cells exhibiting 488 fluorescence” value [4, 6] of the same molecule?
A: Its value is “approximately 80%”.

Q: What about the “% fluorescent cells prior to acid treatment and trypan blue exposure” value ([4]; ALEXA FLUOR 488-conjugated antibody, 37° C. for various times) of the same molecule?
A: The value was 60-80%.

Q: And the “% of cells exhibiting fluorescence after acidic buffer and trypan blue” value ([4]; ALEXA FLUOR 488-conjugated antibody, 37° C., trypan blue quench of surface signal)?
A: Its value is 20-45%.

Q: What about the “% fluorescent cells after trypan blue” value ([4]; ALEXA FLUOR 488-conjugated antibody, stained at 4° C., trypan blue) of the same molecule?
A: The value was “less than 20%”.

Q: What about the “internalization (conclusion)” value [4] of the same molecule?
A: The value was “successfully internalized”.
